Laboratory results: patent US7211395 (dated 2007)
Bridges are numbered along the chain shown (N, C = ends). [ ]: non-standard residue; d: D form. Ahx = NCCCCCC(=O)O

B1: DX-321 (GD...GGGK form) (peptide)
chain: Ac-GDRNMCKFSWIRSPAFCARADPGGGK-NH2
modifications: disulfide 6-17 (inferred); also: fluorescein label, attachment site not given here
B2: DX-997 (peptide)
chain: Ac-GDFSLCWIVDEDGTKWCLPDPGGGK-NH2
modifications: disulfide 6-17 (inferred); also: fluorescein label, attachment site not given here

Target: T1, human serum albumin (HSA) (human, UniProt P02768)
Assay: FP, pH 7.4, 0.14 M NaCl, 0.1% caprylate

Binder | Kd
Ac-AEGTGDDWDCVTRWANRDQQCWALDPE[Ahx]K(fluorescein)-NH2 (disulfide 10-21 (inferred)) [DX-315] | > 100 µM
Ac-AEGTGSWKVCDHFFCLSPAPE[Ahx]K(fluorescein)-NH2 (disulfide 10-15 (inferred)) [DX-297] | > 200 µM
Ac-AEGTGSHVGCNNALCMQYAPE[Ahx]K(fluorescein)-NH2 (disulfide 10-15 (inferred)) [DX-296] | > 200 µM

Target: T1, human serum albumin (HSA)
Assay: FP, PBS

Binder | binding result
Ac-GDPRSCVEKYYWDVLICGFFDPGGGK-NH2 (disulfide 6-17 (inferred); also: fluorescein label, position not given here) [DX-1169] | no binding
Ac-GDSDFCDTPYWRDLWQCNSPDPGGGK-NH2 (disulfide 6-17 (inferred); also: fluorescein label, position not given here) [DX-1087] | no binding
Ac-GDRWFCDSAYWQEIPACARDDPGGGK-NH2 (disulfide 6-17 (inferred); also: fluorescein label, position not given here) [DX-1085] | no binding

Target: T1, human serum albumin (HSA)
Assay: FP, pH 9.1, 0.14 M NaCl

Binder | Kd
Ac-AEGTGDDWDCVTRWANRDQQCWGPDPE[Ahx]K(fluorescein)-NH2 (disulfide 10-21 (inferred)) [DX-313] | 90 µM
Ac-AEGTGSNHGCWHFSCIWDAPE[Ahx]K(fluorescein)-NH2 (disulfide 10-15 (inferred)) [DX-298] | > 200 µM

Target: T1, human serum albumin (HSA)
Assay: FP

Binder | Kd
Ac-FWFCDRIAWYPQHLCEFLDPEGGGK-NH2 (disulfide 4-15 (inferred)) [DX-236 truncation SEQ 39] | 8.9 µM
Ac-AEGTGDFWFCDRIAWYPQHLCGGGK-NH2 (disulfide 10-21 (inferred)) [DX-236 truncation SEQ 42] | 8.9 µM

Target: T1, human serum albumin (HSA)
Assay: FP, pH 6.2, 0.14 M NaCl

Binder | Kd
Ac-AEGTGSFKICDQWFCLMPAPE[Ahx]K(fluorescein)-NH2 (disulfide 10-15 (inferred)) [DX-295] | > 100 µM
Ac-AEGTGDDWDCVTRWANRDQQCWALDPE[Ahx]K(fluorescein)-NH2 (disulfide 10-21 (inferred)) [DX-315] | > 200 µM
Ac-AEGTGDDWDCVTRWANRDQQCWGPDPE[Ahx]K(fluorescein)-NH2 (disulfide 10-21 (inferred)) [DX-313] | 80 µM
Ac-AEGTGDDWQCVKDWANRRRGCMADDPE[Ahx]K(fluorescein)-NH2 (disulfide 10-21 (inferred)) [DX-319] | > 200 µM
Ac-AEGTGSVAWCTIFLCLDVAPEGGGK(fluorescein)-NH2 (disulfide 10-15 (inferred)) [DX-232] | 0.5 µM
Ac-AEGTGSWKVCDHFFCLSPAPE[Ahx]K(fluorescein)-NH2 (disulfide 10-15 (inferred)) [DX-297] | > 200 µM
Ac-AEGTGSHVGCNNALCMQYAPE[Ahx]K(fluorescein)-NH2 (disulfide 10-15 (inferred)) [DX-296] | > 100 µM
Ac-AEGTGSNHGCWHFSCIWDAPE[Ahx]K(fluorescein)-NH2 (disulfide 10-15 (inferred)) [DX-298] | > 200 µM
Ac-AEGTGDDWDCVTDWANRHQHCWALDPE[Ahx]K(fluorescein)-NH2 (disulfide 10-21 (inferred)) [DX-317] | > 200 µM

Target: T1, human serum albumin (HSA)
Assay: FP, PBS
Remark: another data set of the same source

Binder | Kd
Ac-AGWTTCHIYDWFCSSSGTGGGK-NH2 (disulfide 6-13 (inferred); also: fluorescein label, position not given here) [DX-1175] | 30 µM
Ac-AGLEYCFYQWWGCPHAGTGGGK-NH2 (disulfide 6-13 (inferred); also: fluorescein label, position not given here) [DX-1177] | 153 µM
Ac-AGYQFCTWDPIFCGWHGTGGGK-NH2 (disulfide 6-13 (inferred); also: fluorescein label, position not given here) [DX-1179] | 185 µM
Ac-GSLWDCWLYDCEGNAPGGGK-NH2 (disulfide 6-11 (inferred); also: fluorescein label, position not given here) [DX-1093] | > 10 µM
Ac-GDLRDCQTTWPFTMMQCPNNDPGGGK-NH2 (disulfide 6-17 (inferred); also: fluorescein label, position not given here) [DX-1002] | 4 µM
Ac-GSRSFCMDWPNHRDCDYSAPGGGK-NH2 (disulfide 6-15 (inferred); also: fluorescein label, position not given here) [DX-1171] | 165 µM
Ac-GDNDGCTDTNWSWMFDCPPLDPGGGK-NH2 (disulfide 6-17 (inferred); also: fluorescein label, position not given here) [DX-1165] | > 10 µM
Ac-GDSFCVTYIGTWETVCKRSDPGGGK-NH2 (disulfide 5-16 (inferred); also: fluorescein label, position not given here) [DX-1089] | > 10 µM
Ac-GDDSMCITWPFKRPWPCANDPGGGK-NH2 (disulfide 6-17 (inferred); also: fluorescein label, position not given here) [DX-1163] | 42 µM
Ac-GDLRSCFTYYPFTTFSCSPADPGGGK-NH2 (disulfide 6-17 (inferred); also: fluorescein label, position not given here) [DX-1091] | > 10 µM
Ac-GDSPYCKIALFQHFEVCAADDPGGGK-NH2 (disulfide 6-17 (inferred); also: fluorescein label, position not given here) [DX-1167] | > 10 µM
Ac-AGKWYCAWDPLVCEIFGTGGGK-NH2 (disulfide 6-13 (inferred); also: fluorescein label, position not given here) [DX-1173] | > 10 µM
B1 | > 10 µM
B2 | > 10 µM

Target: T1, human serum albumin (HSA)
Assay: FP, pH 7.4, 0.14 M NaCl

Binder | Kd
Ac-AEGTGDDWDCVTRWANRDQQCWGPDPE[Ahx]K(fluorescein)-NH2 (disulfide 10-21 (inferred)) [DX-313] | > 200 µM
Ac-AEGTGDDWQCVKDWANRRRGCMADDPE[Ahx]K(fluorescein)-NH2 (disulfide 10-21 (inferred)) [DX-319] | > 200 µM
Ac-AEGTGSWKVCDHFFCLSPAPE[Ahx]K(fluorescein)-NH2 (disulfide 10-15 (inferred)) [DX-297] | > 200 µM
